Results on 34 variants are retold here after the Human Domainome abundance scans (Beltran et al. 2025).

± gives the uncertainty stated by the source.

B1: Zinc finger MYM-type protein 3, residues 589 to 668; numbered along this chain, Q14202 (parent)
chain: LSCHYCHSLFSGKPEVLDWQDQVFQFCCRDCCEDFKRLRGVVSQCEHCRQEKLLHEKLRFSGVEKSFCSEGCVLLYKQDF

The data set covers variants of B1. Briefly: abundance fitness (aPCA) (normalised: wild type 0, dead -1); higher = more abundant; growth selection in yeast, the domain comes from the species named. Particulars: Homo sapiens.
Consider LSCHYCHSLFSGMPEVLDWQDQVFQFCCRDCCEDFKRLRGVVSQCEHCRQEKLLHEKLRFSGVEKSFCSEGCVLLYKQDF, for which the abundance fitness is -0.444 ± 0.15.
In the case of LSCHYCHSLFSGKPEVLDWQDQVFQFCCRDCCEDFKRLRGVVSACEHCRQEKLLHEKLRFSGVEKSFCSEGCVLLYKQDF it was 0.702 ± 0.075; in that of LSCHYCHSLFSGKPEVLDWQDQVFQFCCRDCCEDFKRLRGVVSQCEHCRQEKLLHEKLRFSGVEKSFCSGGCVLLYKQDF, -0.116 ± 0.12.
For LSAHYCHSLFSGKPEVLDWQDQVFQFCCRDCCEDFKRLRGVVSQCEHCRQEKLLHEKLRFSGVEKSFCSEGCVLLYKQDF, the abundance fitness was -0.906 ± 0.078.
The same measure for LSCHYCHSLFSGKPEVLDWQDQVFQFCCRDCGEDFKRLRGVVSQCEHCRQEKLLHEKLRFSGVEKSFCSEGCVLLYKQDF: -0.253 ± 0.042.
The same measure for LSCHYCHSLFSGKPEVLDWQDQVFQFCCRDCAEDFKRLRGVVSQCEHCRQEKLLHEKLRFSGVEKSFCSEGCVLLYKQDF: -0.026 ± 0.042; for LSCHYCHSLFSGKPEVLDWQDQVFQFCCRDCCEDFKRLRGVVSQCEHCRQEKLLHEKLRFSGVEKSFCSEGCVLLYKQAF: 0.089 ± 0.12; for LSCHYCHSLFSGKPEVLDWQDQVFQFCCRDCCEDFKRLRGVVSQCEHCRQEKLLHEKLRFSGVEKSFCSEGCVLLYKQGF: 0.187 ± 0.074.
In the case of LSCHYCHSLFSGKPEVLDWQDQVFQFCCRDCCEDFKRLRGVVSQCRHCRQEKLLHEKLRFSGVEKSFCSEGCVLLYKQDF it was -0.741 ± 0.16.
As to VSCHYCHSLFSGKPEVLDWQDQVFQFCCRDCCEDFKRLRGVVSQCEHCRQEKLLHEKLRFSGVEKSFCSEGCVLLYKQDF, the abundance fitness turned out to be 0.364 ± 0.051.
In the case of LSCHYCHSLFSGKPEVLDWQDQVFQFCCRDCCEDFKRLRGVVSQCEHCRQEKLLHEKLRFSGVEKSFCSEGCVLLYKQDA it was 0.288 ± 0.16; in that of LSCHYCHSLFSVKPEVLDWQDQVFQFCCRDCCEDFKRLRGVVSQCEHCRQEKLLHEKLRFSGVEKSFCSEGCVLLYKQDF, -0.267 ± 0.043.
In the case of LSCHYCHSLFSLKPEVLDWQDQVFQFCCRDCCEDFKRLRGVVSQCEHCRQEKLLHEKLRFSGVEKSFCSEGCVLLYKQDF it was -0.261 ± 0.046; in that of LSCHYCHSKFSGKPEVLDWQDQVFQFCCRDCCEDFKRLRGVVSQCEHCRQEKLLHEKLRFSGVEKSFCSEGCVLLYKQDF, -0.096 ± 0.056.
The same measure for LSCHYCHSLFSGKPEVLDWQDQVFQFCCRDCCEDFKRLRGVVSQCEHCRQEKLLHEKLRFSGVEKSNCSEGCVLLYKQDF: -0.231 ± 0.33; for LSCHYCHSLFSGKPEVLDWQDQVFQFCCRDCCEDFKRLRGVVSQCEHCRQEKLLHEKLRFSGVEKSGCSEGCVLLYKQDF: 0.039 ± 0.12; for LSCHYCHSLFSGKPEVLDWQDQVFQFCCRDCCEDFKRLRGVVSQCEHCRQEKLLHEKLRFSGVEKSFCSEGCVLLYEQDF: -0.406 ± 0.18.
On to LSCDYCHSLFSGKPEVLDWQDQVFQFCCRDCCEDFKRLRGVVSQCEHCRQEKLLHEKLRFSGVEKSFCSEGCVLLYKQDF, for which the abundance fitness was 0.128 ± 0.052.
As for LSCYYCHSLFSGKPEVLDWQDQVFQFCCRDCCEDFKRLRGVVSQCEHCRQEKLLHEKLRFSGVEKSFCSEGCVLLYKQDF, the abundance fitness worked out at 0.116 ± 0.059.
On to LSCCYCHSLFSGKPEVLDWQDQVFQFCCRDCCEDFKRLRGVVSQCEHCRQEKLLHEKLRFSGVEKSFCSEGCVLLYKQDF, for which the abundance fitness came out at 0.26 ± 0.051.
In the case of LSCPYCHSLFSGKPEVLDWQDQVFQFCCRDCCEDFKRLRGVVSQCEHCRQEKLLHEKLRFSGVEKSFCSEGCVLLYKQDF it was -0.061 ± 0.048; in that of LSCRYCHSLFSGKPEVLDWQDQVFQFCCRDCCEDFKRLRGVVSQCEHCRQEKLLHEKLRFSGVEKSFCSEGCVLLYKQDF, 0.115 ± 0.038; in that of LSCHYCHSLFSGKPEVLDWQDQVFQFCCRDCCEDFKRLRGVVSQCESCRQEKLLHEKLRFSGVEKSFCSEGCVLLYKQDF, -0.098 ± 0.14.
The same measure for LSCHYCHSLFSGKPEVLDWQDQVFQFCCRDCCEDFKRLRGVVSQCEVCRQEKLLHEKLRFSGVEKSFCSEGCVLLYKQDF: 0.075 ± 0.2; for LSCHYCHSLFSGKPEVLDWQDQVFQFCCRDCCEDFKRLRGVVSQCEHCRQEKLLHEKLRFSGVEKSFCSEGCVLAYKQDF: 0.615 ± 0.073; for LSCHYCHSLFSGKPEVLDWQDQVFQFCCRDCCEDFKRLRGVVSQCEHCRQEKLLHMKLRFSGVEKSFCSEGCVLLYKQDF: -0.22 ± 0.22.
Regarding LSCHYCHSLFSGKPEVLDWQDQVFQFCCRDCCEDFKRLRGVVSQCEHCRQEKLLHGKLRFSGVEKSFCSEGCVLLYKQDF, the abundance fitness was -0.47 ± 0.11.
In the case of LSCHYCHPLFSGKPEVLDWQDQVFQFCCRDCCEDFKRLRGVVSQCEHCRQEKLLHEKLRFSGVEKSFCSEGCVLLYKQDF, the abundance fitness was -1.19 ± 0.17.
LSCHYCHSLFSGKPEVLDWQDQAFQFCCRDCCEDFKRLRGVVSQCEHCRQEKLLHEKLRFSGVEKSFCSEGCVLLYKQDF: the abundance fitness was 0.023 ± 0.041.
The same measure for LSCHYCHSLFSGKPEVLDWQDQVFQFCCRDCCEDFKRLRGVVSQCEHCRQEKLLHEKLRFSGVEKVFCSEGCVLLYKQDF: -0.235 ± 0.14.
In the case of LSCHYCHSLFSGKPKVLDWQDQVFQFCCRDCCEDFKRLRGVVSQCEHCRQEKLLHEKLRFSGVEKSFCSEGCVLLYKQDF it was -0.46 ± 0.078; in that of LSCHYCHSLFSGKPMVLDWQDQVFQFCCRDCCEDFKRLRGVVSQCEHCRQEKLLHEKLRFSGVEKSFCSEGCVLLYKQDF, 0.152 ± 0.089; in that of LSCHYCHSLFSGKPEVLDWQDQVFQFCCRDCCEDFKRLRGVVSQCEHVRQEKLLHEKLRFSGVEKSFCSEGCVLLYKQDF, -0.741 ± 0.18.
In the case of LSCHYCHSLFSGKPEVLIWQDQVFQFCCRDCCEDFKRLRGVVSQCEHCRQEKLLHEKLRFSGVEKSFCSEGCVLLYKQDF it was -0.039 ± 0.071.
